Assay [1] concerns the target T1, Myotoxin II from Bothrops asper (Basic phospholipase A2 homolog 2, Uniprot P24605) (Bothrops asper, UniProt P24605 17-137). In words: cell-based or functional assay.
The target of assay [2] is T1, Myotoxin II from Bothrops asper (Basic …). In words: monoclonal IgG ELISA, dilution series (Fig. 2A legend). A general note: ELISA stands for enzyme-linked immunosorbent assay.
For assay [3] the target is unchanged. In words: expression-normalized capture (ENC) assay, antigen at 10 nM (data not shown).

T1 sequence (P24605 17-137, one chain of several): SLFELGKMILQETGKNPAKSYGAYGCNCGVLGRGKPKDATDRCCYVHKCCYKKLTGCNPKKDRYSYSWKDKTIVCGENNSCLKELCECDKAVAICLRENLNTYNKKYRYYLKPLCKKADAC

B1: TPL0039_05_G08 IgG (antibody, V domains shown)
VH: EVQLVESGGGVVQPGRSLRLSCAASGFTFSSYGMHWVRQAPGKGLEWVAVISYDGSNKYYADSVKGRFTISRDNSKNTLYLQMNSLRAEDTAVYYCARTNYDSGDAFDIWGQGTLVTVSS
VL: NFMLTQPHSVSESPGKTVTISCTRSSGSIASNYVQWYQQRPGSSPTTVIYEDNQRPSGVPDRFSGSIDSSSNSASLTISGLKTEDEADYYCQSYDSSTVVFGGGTKLTVLG
For B1, the “fibroblast viability assay (CellTiter-Glo), toxin:IgG ratio for full neutralization” value in assay [1] is 1 mol IgG per mol toxin (printed as toxin:IgG 1:1).

B2: TPL0039_05_F04 IgG (antibody, V domains shown)
VH: QVQLVESGGGVVQPGRSPRLSCAASGFTFSSYGMHWVRQAPGKGLEWVAVISYDGSNKYYADSVKGRFTISRDNSKNTLYLQMNSLRAEDTAVYYCAKDLEYSSSSWGQGTLVTVSS
VL: NFMLTQPHSVSESPGKTVTISCTRSSGSIASNYVQWFQQRPGSSPTTVIYEDDQRPSGVPDRFSGSIDSSSNSASLTISGLKTEDEATYFCQSYDSSTVVFGGGTKVTVLG
B2: the binding result in assay [2] is on record as “binds”.

B3: TPL0039_05_A03 IgG (antibody, V domains shown)
VH: QVQLVESGGGLAKPGRSLRLSCAVSGFTFSSYGMHWVRQAPGKGLEWVAVISYDGSNKYYADSVKGRFTISRDNSKNTLYLQMNSLRAEDTAVYYCASTLQQLDAFDIWGQGTMVTVSS
VL: NFMLTQPHSVSESPGKTITISCTRSSGSIASNYVQWYQQRPGSVPTPVIYEDDRRPSGVPDRFSGSIDSSSNSASLTISGLKTEDEADYYCQSYDSSSVVFGGGTKITVLG
For the molecule B3, the “fibroblast viability assay (CellTiter-Glo), toxin:IgG ratio for full neutralization” value in assay [1] was 0.5 mol IgG per mol toxin (printed as toxin:IgG 1:0.5).

B4: TPL0039_05_B12 IgG (antibody, V domains shown)
VH: EVQLVESGGGVVQPGRSLRLSCAASGFTFSSYGMHWVRQAPGKGLEWVAVISYDGSNKYYADSVKGRFTISRDNSKNTLYLQMNSLRAEDTAVYYCAGWTEGDAFDIWGQGTLVTVSS
VL: NFMLTQPHSVSESPGKTVTISCTRSSGSIASNYVQWYQQRPGSAPSTVIYEDNRRPSGVPDRFSGSIDSASNSASLTISGLKTEDEADYYCQSYDSSSVVFGGGTKITVLG
With B4, the “fibroblast viability assay (CellTiter-Glo), toxin:IgG ratio for full neutralization” value in assay [1] is 0.5 mol IgG per mol toxin (printed as toxin:IgG 1:0.5).

B5: TPL0039_05_B04 IgG (antibody, V domains shown)
VH: EVQLLESGGGVVQPGRSLRLSCAASGFTFSSYGMHWVRQAPGKGLEWVAVISYDGSNKYYADSVKGRFTISRDNSKNTLYLQMNSLRAEDTAVYYCARVGENEAFDIWGQGTMVTVSS
VL: NFMLTQPHSVSESPGKTVTISCTRSSGSIARNYVQWYQQRPGSAPTTVIYEDNQRPSGVPDRFSGSIDSSSNSASLTISGLKTEDEADYYCQSYDSSTVVFGGGTKLTVLG
On to B5, for which, in assay [1], the “fibroblast viability assay (CellTiter-Glo), toxin:IgG ratio for full neutralization” value was 0.5 mol IgG per mol toxin (printed as toxin:IgG 1:0.5).

B6: TPL0039_05_F04 scFv (scFv, V domains shown)
VH: QVQLVESGGGVVQPGRSPRLSCAASGFTFSSYGMHWVRQAPGKGLEWVAVISYDGSNKYYADSVKGRFTISRDNSKNTLYLQMNSLRAEDTAVYYCAKDLEYSSSSWGQGTLVTVSS
VL: NFMLTQPHSVSESPGKTVTISCTRSSGSIASNYVQWFQQRPGSSPTTVIYEDDQRPSGVPDRFSGSIDSSSNSASLTISGLKTEDEATYFCQSYDSSTVVFGGGTKVTVLG
As for B6, the binding result in assay [3] is recorded as “binds”.

Source of the values: patent publication EP4302836A1 (Danmarks Tekniske Universitet, dated 2024).
